± gives the uncertainty stated by the source.
Assay: self-splicing fitness, log relative to wild type (ln ratio); higher = more splicing; Tetrahymena group I intron in knt gene, E. coli kanamycin selection, DiMSum; sequences stand for … in CUCUCU…GGAGGGAAAAGUUAUCAGGCAUGCACCUGGUAGCUAGUCUUUAAACCAAUAGAUUGCAUCGGUUUAAAAGGCAAGACCGUCAAAUUGCGGGAAAGGGGUCAACAGCCGUUCAGUACCAAGUCUCAGGGGAAACUUUGAGAUGGCCUUGCAAAGGGUAUGGUAAUAAGCUGACGGACAUGGUCCUAACCACGCAGCCAAGUCCUAAGUCAACAGAUCUUCUGUUGAUAUGGAUGCAGUUCACAGACUAAAUGUCGGUCGGGGAAGAUGUAUUCUUCUCAUAAGAUAUAGUCGGACCUCUCCUUAAUGGGAGCUAGCGGAUGAAGUGAUGCAACACUGGAGCCGCUGGGAACUAAUUUGUAUGCGAAAGUAUAUUGAUUAGUUUUGGAGUACUCGUGGUCG
Outline: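 A randomised library covering all eight P1ex-region intron nucleotides was built with the intron in the knt kanamycin-resistance gene on pET-22b(+) and held in E. coli BL21(DE3). Cells were grown overnight at 37°C or 30°C on LB agar, with or without 25 μg/mL kanamycin, plus 100 μg/mL carbenicillin, 50 μM IPTG and 0.2% rhamnose, and pooled colonies were amplicon-sequenced on an Illumina HiSeq 2500. DiMSum fitness is the error-weighted combination of wild-type-normalised replicate fold changes, kanamycin versus none.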

Sequence | self-splicing fitness (ln) (30 °C) | self-splicing fitness (ln) (37 °C)
AUUGAGCAAUAUUACGGGGG | -4.39 ± 0.46 | -3.19 ± 0.31
UGCAAGCAAUAUUACGGCGG | -0.854 ± 0.046 | -0.116 ± 0.068
AGAAAGCAAUAUUACGGGAA | -2.72 ± 0.13 | -1.73 ± 0.12
AUGUAGCAAUAUUACGACCA | -0.549 ± 0.17 | -0.552 ± 0.17
UCCCAGCAAUAUUACGCGCA | -0.296 ± 0.093 | -0.219 ± 0.089
CCGCAGCAAUAUUACGGAAC | -3.52 ± 0.41 | -3.41 ± 0.29
ACCCAGCAAUAUUACGUAUA | -2.2 ± 0.092 | -1.2 ± 0.085
AACAAGCAAUAUUACGGCUA | -0.414 ± 0.067 | 0.274 ± 0.092
GACAAGCAAUAUUACGCGAA | -2.8 ± 0.16 | -1.88 ± 0.14
CAUUAGCAAUAUUACGCUCA | -1.21 ± 0.07 | -0.215 ± 0.073
UUCGAGCAAUAUUACGCCAG | -2.94 ± 0.24 | -0.74 ± 0.21
CGGCAGCAAUAUUACGUGGC | -3.19 ± 0.33 | -2.02 ± 0.23
CCUCAGCAAUAUUACGUAUA | -3.44 ± 0.19 | -3.16 ± 0.32
AAGAAGCAAUAUUACGGCAG | -1.35 ± 0.099 | -0.774 ± 0.12
AAGGAGCAAUAUUACGGGCU | -2.94 ± 0.24 | -2.53 ± 0.28
ACUCAGCAAUAUUACGUACC | -1.39 ± 0.09 | 0.482 ± 0.13
UGGCAGCAAUAUUACGUACA | 0.117 ± 0.071 | 0.116 ± 0.1
GGAAAGCAAUAUUACGCUAA | -0.882 ± 0.25 | -1.08 ± 0.27
UCGAAGCAAUAUUACGAGCA | -1.77 ± 0.14 | 0.162 ± 0.14
CCCGAGCAAUAUUACGUCAU | -3.95 ± 0.31 | -2.99 ± 0.26
UCGAAGCAAUAUUACGCUGU | -2.33 ± 0.21 | -2.06 ± 0.33
CUACAGCAAUAUUACGCUGU | -3.9 ± 0.2 | -2.8 ± 0.22
GAGCAGCAAUAUUACGGAAC | -3.14 ± 0.23 | -2.13 ± 0.16
GUUGAGCAAUAUUACGUCGG | -3.61 ± 0.39 | -1.61 ± 0.27

Sequence | self-splicing fitness (ln) (30 °C) | self-splicing fitness (ln) (37 °C)
UCUCAGCAAUAUUACGUCGG | -1.51 ± 0.085 | -1.22 ± 0.11
UCGUAGCAAUAUUACGGGUU | -3.23 ± 0.18 | -2.38 ± 0.23
GGGCAGCAAUAUUACGACAA | -1.53 ± 0.22 | -0.573 ± 0.18
AGUUAGCAAUAUUACGGUUC | -3.52 ± 0.28 | -2.11 ± 0.27
GACCAGCAAUAUUACGAUAC | -0.984 ± 0.056 | -0.634 ± 0.066
AAGAAGCAAUAUUACGGGCU | -1.35 ± 0.13 | -2.09 ± 0.2
AUACAGCAAUAUUACGUGGG | -3.45 ± 0.15 | -1.53 ± 0.12
GGCGAGCAAUAUUACGUGGC | -3.3 ± 0.25 | -1.73 ± 0.25
CGGCAGCAAUAUUACGAAAC | -3.19 ± 0.33 | -2.93 ± 0.25
AGUGAGCAAUAUUACGACGU | -0.966 ± 0.059 | -0.385 ± 0.066
GAGAAGCAAUAUUACGCAGU | -3.98 ± 0.23 | -2.06 ± 0.17
CCUUAGCAAUAUUACGCACA | -1.93 ± 0.28 | -1.06 ± 0.21
CUCUAGCAAUAUUACGAUGC | -1.49 ± 0.17 | -3.25 ± 0.33
GGUAAGCAAUAUUACGCAGG | -2.05 ± 0.16 | -1.29 ± 0.15
UCCUAGCAAUAUUACGCAUC | -2.3 ± 0.21 | -1.27 ± 0.22
UCCAAGCAAUAUUACGCAUC | -3.02 ± 0.21 | -2.93 ± 0.24
CACGAGCAAUAUUACGCUGA | -3.57 ± 0.37 | -2.02 ± 0.3
CGCCAGCAAUAUUACGGCAU | -1.25 ± 0.081 | -0.458 ± 0.088
GACGAGCAAUAUUACGACGC | -0.758 ± 0.13 | -0.747 ± 0.15
UUCAAGCAAUAUUACGGCUC | -1.68 ± 0.17 | -0.923 ± 0.23
AAGCAGCAAUAUUACGCAAU | -1.23 ± 0.085 | -1.22 ± 0.091
AUUGAGCAAUAUUACGCAUU | -2.64 ± 0.23 | -1.49 ± 0.18
CCUUAGCAAUAUUACGGCGA | -4.24 ± 0.39 | -1.96 ± 0.2
